Target: T1, wild-type HMPV F protein (soluble, secreted, with C-terminal GCNt trimerization domain) (human metapneumovirus, B2 strain)
T1 construct: fusion (F) glycoprotein of human metapneumovirus, B2 strain; soluble secreted form, GCNt joined in-frame with the heptad repeat of the C-terminal HRB; Preparations are mixtures of pre- and post-fusion forms; heating to 50°C for 30 min converts them to the post-fusion form (written as assays of their own); The trimer may rest in part on the GCNt domain; also called wt HMPV F; MPV F-GCNt; not …
Assay: SPR; BiOptix 404pi; F proteins captured on NiHC1000m chip through their C-terminal His tag to 120 RU; Fab injected at 300 to 0.14 nM, 100 ul/min; 10 mM HEPES pH 7.2, 150 mM NaCl, 0.005% Tween 20, 50 uM EDTA; simple Langmuir model
Settings: both partners purified

B1: motavizumab Fab (affinity-matured variant of palivizumab, anti-RSV F site II/A) (Fab, V domains shown)
VH: QVTLRESGPALVKPTQTLTLTCTFSGFSLSTAGMSVGWIRQPPGKALEWLADIWWDDKKHYNPSLKDRLTISKDTSKNQVVLKVTNMDPADTATYYCARDMIFNFYFDVWGQGTTVTVSS
VL: DIQMTQSPSTLSASVGDRVTITCSASSRVGYMHWYQQKPGKAPKLLIYDTSKLASGVPSRFSGSGSGTEFTLTISSLQPDDFATYYCFQGSGYPFTFGGGTKVEIK
notes: heavy chain of the Fab in the motavizumab:RSV peptide complex PDB 3IXT; light chain of the Fab in the motavizumab:RSV peptide complex PDB 3IXT; Variable genes cloned into pEE6.4 (heavy) and pEE12.4 (light) vectors (Lonza); constant parts of the Fab construct are not described; source: FreeStyle 293-F cells, co-transfected (PEI), purified from supernatant (protein G column)
- binding result: no binding
